Literature values as cited in PMC6614495.

Target: Amyloid beta (Homo sapiens) (UniProt P05067)
Sequence (P05067 672-711): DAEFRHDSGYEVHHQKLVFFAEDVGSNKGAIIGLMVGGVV

Sequence of Clusterin (ApoJ) (P10909 23-227): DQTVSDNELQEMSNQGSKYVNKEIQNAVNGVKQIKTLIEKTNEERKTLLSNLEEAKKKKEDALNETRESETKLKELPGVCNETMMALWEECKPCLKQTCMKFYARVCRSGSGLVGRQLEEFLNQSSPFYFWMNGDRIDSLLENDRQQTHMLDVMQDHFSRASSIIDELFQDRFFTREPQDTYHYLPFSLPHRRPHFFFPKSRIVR
Sequence of Clusterin (ApoJ) (P10909 228-449): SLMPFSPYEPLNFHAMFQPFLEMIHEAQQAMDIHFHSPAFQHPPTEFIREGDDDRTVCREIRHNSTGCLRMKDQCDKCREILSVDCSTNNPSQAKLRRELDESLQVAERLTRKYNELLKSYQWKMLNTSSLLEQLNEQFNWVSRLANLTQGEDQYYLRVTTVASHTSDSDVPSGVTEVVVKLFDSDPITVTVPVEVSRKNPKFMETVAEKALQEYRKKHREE

Q: For Clusterin (ApoJ) (from UniProt P10909), which Kd is on record?
A: The Kd was 2 nM.
